Substitutions are numbered along the chain they refer to.
B1: SRP2196-A09 (antibody, V domains shown)
VH: EVQLVESGGGLVQPGGSLRLSCAASGFNITGYYIHWVRQAPGKGLEWVGQISPNSGATHYADSVKGRFTISADTSKNTAYLQMNSLRAEDTAVYYCARDSRRYIRSWDYWGQGTLVTVSS
VL: QAVVTQESALTTSPGETVTLTCRSSTGAVTTSNYANWVQEKPDHLFTGLIGGTNKRAPGVPARFSGSLIGDKAALTITGAQTEDEAIYFCALWYSNLWVFGGGTKLTVL
B2: SRP2196-C03 (antibody, V domains shown)
VH: B1 VH with A57S, H59Y, Y60S, N84S, I104V, R105L
VL: B1 VL
B3: SRP2196-B02 (antibody, V domains shown)
VH: B1 VH with G31Q, Q50Y, A57Q, H59Y, Y60D, I104V
VL: B1 VL
B4: SRP2196-B04 (antibody, V domains shown)
VH: B1 VH with G31E, Q50Y, H59Y, Y60Q, I104V, S106G
VL: B1 VL
B5: SRP2196-C04 (antibody, V domains shown)
VH: B1 VH with Q50F, S52A, N54L, A57S, Y60N, D99E, I104V, R105N, S106P
VL: B1 VL
B6: SRP2196-A10 (antibody, V domains shown)
VH: B1 VH with Q50Y, T74I, Y94H, I104V
VL: B1 VL
B7: SRP2196-B11 (antibody, V domains shown)
VH: B1 VH with K43R, A57Y, H59Y
VL: B1 VL
B8: SRP2196-B09 (antibody, V domains shown)
VH: B1 VH with G15E, G31E, Q50Y, A57S, H59Y, I104V
VL: B1 VL
B9: SRP2196-B10 (antibody, V domains shown)
VH: B1 VH with Q50S, S52T, N54L, H59S, Y60K
VL: B1 VL
B10: SRP2196-B08 (antibody, V domains shown)
VH: B1 VH with A57Y, H59Y, Y60L, I104V, S106G
VL: B1 VL
B11: SRP2196-B06 (antibody, V domains shown)
VH: B1 VH with A57S, H59Y, Y60S, I104V, R105L
VL: B1 VL
B12: SRP2196-C02 (antibody, V domains shown)
VH: B1 VH with Y33H, Q50F, A57W, H59Y, Y60S, I104V, S106P, W107F
VL: B1 VL
B13: SRP2196-A11 (antibody, V domains shown)
VH: B1 VH with A57T, H59Y, Y60D, I104V, S106G
VL: B1 VL
B14: SRP2196-B01 (antibody, V domains shown)
VH: B1 VH with A57Y, H59Y, A79T, I104V
VL: B1 VL
B15: SRP2196-B03 (antibody, V domains shown)
VH: B1 VH with V12A, Q50Y, I104V, S106P, W107F
VL: B1 VL
B16: SRP2196-C01 (antibody, V domains shown)
VH: B1 VH with T30I, Q50S, S52T, N54L, H59S, Y60K
VL: B1 VL

test system: not listed separately; test: Differential scanning fluorimetry (protein thermal shift; TM1 Fc, TM2 Fab); assay type: physicochemical; details: melting temperature of the Fab domain; Table 11
Method: A protein thermal shift assay was carried out by mixing the protein to be assayed with an environmentally sensitive dye (SYPRO Orange, Life Technologies Cat #S-6650) in a phosphate buffered solution (PBS), and monitoring the fluorescence of the mixture in real time as it underwent controlled thermal denaturation. Protein solutions between 0.2-2 mg/mL were mixed at a 1-1 volumetric ratio with a 1-500 PBS-diluted solution of SYPRO Orange (SYPRO Orange stock dye is 5000× in DMSO). 10 μL aliquots of the protein-dye mixture were dispensed in quadruplicate in a 384-well microplate (Bio-Rad Cat #MSP-3852), and the plate was sealed with an optically clear sealing film (Bio-Rad Cat #MSB-1001) and placed in a 384-well plate real-time thermocycler (Bio-Rad CFX384 Real Time System). The protein-dye mixture was heated from 25° C. to 95° C., at increments of 0.1° C. per cycle (˜1.5° C. per minute), allowing 3 seconds of equilibration at each temperature before taking a fluorescence measurement. At the end of the experiment, the transition melting temperatures (TM1 and TM2) were determined using the Bio-Rad CFX manager software. TM1 represents the melting temperature of the Fc domain. TM2 represents the melting temperature of the Fab domain.
For the thermal stability of an antibody, the first melting peak (Tm1) coincides with the unfolding of the CH2 domain (FC stability), while the second melting peak (Tm2) occurs upon unfolding of the Fab domain.

Going from B1 to B2, the TM2 falls from 75 °C to 69 °C.

Compared with B3, B4 is higher in TM2: 69 °C for the first, 72 °C for the second.

Compared with B5, B6 is lower in TM2: 70 °C for the first, 68 °C for the second.

Compared with B7, B8 is lower in TM2: 74 °C for the first, 72 °C for the second.

First: B9
Second: B10
The TM2 of the first is lower: 70 °C for the first, 75 °C for the second.

First: B11
Second: B12
The TM2 of the first is higher: 70 °C for the first, 67 °C for the second.

Going from B13 to B14, the TM2 rises from 73 °C to 75 °C.

Going from B15 to B16, the TM2 falls from 71 °C to 70 °C.

biological target: T1, human ROR1-Fz (Homo sapiens, UniProt Q01973); test: Biacore off-rate and kinetic analysis, ROR1 frizzled domain; assay type: binding; details: Table 11 (SP34 light chain)
T1 construct: Frizzled (Fz, residues 165-305); HIS6 (C); purchased Acro Biosystems; host or cells: HEK293
T1 sequence (Q01973 165-305): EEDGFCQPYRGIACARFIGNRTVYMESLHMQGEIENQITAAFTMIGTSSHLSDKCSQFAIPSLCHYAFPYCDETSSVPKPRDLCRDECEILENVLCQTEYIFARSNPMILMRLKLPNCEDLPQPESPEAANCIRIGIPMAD
Method: Anti-Fc polyclonal antibodies were immobilized onto a CM5 chip (GE Life Sciences) using amine coupling chemistry (from Amine Coupling Kit, GE Life Sciences). The immobilization steps were carried out at a flow rate of 25 μL/min in 1×HBS-EP+ buffer (GE Life Sciences; 10× Stock diluted before use). The sensor surfaces were activated for 7 min with a mixture of NHS (0.05 M) and EDC (0.2 M). The Anti-Fc antibodies were injected over all 4 flow cells at a concentration of 25 ug/ml in 10 mM sodium acetate, pH 4.5, for 7 min. Ethanolamine (1 M, pH 8.5) was injected for 7 min to block any remaining activated groups. An average of 12,000 response units (RU) of capture antibody was immobilized on each flow cell.
Off-rate and kinetic binding experiments were performed at 25° C. using 1×HBS-EP+ buffer. Test and control antibodies were injected over the anti-Fc surface at concentrations of 5-10 μg/mL for 12 seconds at a flow rate of 10 μL/min on flow cells 2, 3 and 4, followed by a buffer wash for 30 seconds at the same flow rate. Kinetic characterization of antibody samples was carried out with a range of antigen concentrations from 1-100 nM and 1 injection of 0 nM antigen (for example, 100, 50, 25, 6.25, 1.56 and 0 nM). After capturing ligand (antibody) on the anti-Fc surface, the analyte (hROR1, Fz or Kr domains, Acro Biosystems, Delaware) was bound for 180 seconds, followed by a 600 second dissociation phase at a flow rate of 50 μL/min. Between each ligand capture and analyte binding cycle, regeneration was carried out using 2 injections of 10 mM Glycine pH 2.0 for 30 seconds at 30 μL/min, followed by a 30 second buffer wash step.
The data was fit with the Biacore T200 Evaluation software, using a 1-1 Langmuir binding model. KD (affinity, nM) was determined as a ratio of the kinetic rate constants calculated from the fits of the association and dissociation phases.
For anti-CD3-LC-containing IgGs that had detectable ROR1-binding in ELISA (1944-A07 and 1987-C05 variants), those antibodies were further tested for binding by surface plasmon resonance (SPR). Binding kinetics were assessed to the ROR1-frizzled domain (hROR1-Fz) or the ROR1-extracellular domain (hROR1) for 1944-A07 and 1987-C05 variants, respectively. Briefly, anti-ROR1 antibodies were captured via anti-human Fc polyclonal antibodies immobilized to a CM5 chip, and ROR1 recombinant proteins were flowed across the surface to assess binding kinetics. hROR1 or hROR1-Fz domain (Acro Biosystems, Delaware) binding was tested at 100, 50, 25, 6.25, 1.5625 nM. The data was fit with the Biacore™ T200 Evaluation software, using a 1-1 Langmuir binding model. KD (affinity, nM) was determined as a ratio of the kinetic rate constants calculated from the fits of the association and dissociation phases.

B1 and B2 are within 1.5-fold of each other in “Biacore human ROR1-Fz ka” value: 150000 M⁻¹ s⁻¹ for the first, 143000 M⁻¹ s⁻¹ for the second.

B3 and B4 are within 1.5-fold of each other in “Biacore human ROR1-Fz ka” value: 163000 M⁻¹ s⁻¹ for the first, 127000 M⁻¹ s⁻¹ for the second.

B5 and B6 are within 1.5-fold of each other in “Biacore human ROR1-Fz ka” value: 131000 M⁻¹ s⁻¹ for the first, 172000 M⁻¹ s⁻¹ for the second.

B7 and B8 are within 1.5-fold of each other in “Biacore human ROR1-Fz ka” value: 137000 M⁻¹ s⁻¹ for the first, 130000 M⁻¹ s⁻¹ for the second.

B9 and B10 are within 1.5-fold of each other in “Biacore human ROR1-Fz ka” value: 128000 M⁻¹ s⁻¹ for the first, 156000 M⁻¹ s⁻¹ for the second.

B11 and B12 are within 1.5-fold of each other in “Biacore human ROR1-Fz ka” value: 142000 M⁻¹ s⁻¹ for the first, 119000 M⁻¹ s⁻¹ for the second.

B13 and B14 are within 1.5-fold of each other in “Biacore human ROR1-Fz ka” value: 191000 M⁻¹ s⁻¹ for the first, 131000 M⁻¹ s⁻¹ for the second.

B15 and B16 are within 1.5-fold of each other in “Biacore human ROR1-Fz ka” value: 124000 M⁻¹ s⁻¹ for the first, 125000 M⁻¹ s⁻¹ for the second.

B1 and B2 are within 1.5-fold of each other in “Biacore human ROR1-Fz kd” value: 0.000568 s⁻¹ for the first, 0.000461 s⁻¹ for the second.

First: B3
Second: B4
The “Biacore human ROR1-Fz kd” value of the first is 1.6-fold lower: 0.000227 s⁻¹ for the first, 0.000352 s⁻¹ for the second.

B5 and B6 are within 1.5-fold of each other in “Biacore human ROR1-Fz kd” value: 0.000704 s⁻¹ for the first, 0.000479 s⁻¹ for the second.

B7 and B8 are within 1.5-fold of each other in “Biacore human ROR1-Fz kd” value: 0.000597 s⁻¹ for the first, 0.000427 s⁻¹ for the second.

B9 and B10 are within 1.5-fold of each other in “Biacore human ROR1-Fz kd” value: 0.000334 s⁻¹ for the first, 0.000488 s⁻¹ for the second.

B11 and B12 are within 1.5-fold of each other in “Biacore human ROR1-Fz kd” value: 0.000423 s⁻¹ for the first, 0.00036 s⁻¹ for the second.

Going from B13 to B14, the “Biacore human ROR1-Fz kd” value falls from 0.000792 s⁻¹ to 0.000401 s⁻¹ (2-fold).

First: B15
Second: B16
The “Biacore human ROR1-Fz kd” value of the first is 2.1-fold higher: 0.000945 s⁻¹ for the first, 0.000457 s⁻¹ for the second.
